Source: the DeepSol protein solubility set

Assay: soluble on expression in E. coli; label from the status in PepcDB or PDB records

Sequence | soluble on expression in E. coli
MITLPTGTKIWIIAGITDMRCGFNGLASKVQNTLKDDPFSGHIFVFRGRSGKMVKILWADRDGLCLFAKRLERGRFVWPVTREGKVHLTPAQLSMLLEGIAWPHPKRTERPGIRI | not soluble
GQELPPGTYRVDIYLNNGYMATRDVTFNTGDSEQGIVPCLTRAQLASMGLNTASVAGMNLLADDACVPLTTMVQDATAHLDVGQQRLNLTIPQAFMSNRARGYIPPELWDPGINA | soluble
MSLGHELYLVGGSVRDALLGRLSPDLDFTTDARPERVQEIVRPWADAVWDTGIEFGTVGVGKSDHRMEITTFRADSYDRVSRHPEVRFGDCLEGDLVRRDFTTNAMAVRVTATGPGEFLDPLGGLAALRAKVLDTPAAPSGSFGDDPLRMLRAARFVSQLGFAVAPRVRAAIEEMAPQLARISAERVAAELDKLLVGEDPAAGIDLMVQSGMGAVVLPEIGGMRMAIDEGHHHHHH | not soluble
MESLKSNLFLTREAYLEAFETIMTPLKTAILTSEKPGVNFGSSGAVYDQQHAEMEALIRPLWGIGPYWVTCKDDVLRDAYVEKLIAGTDPSSPDYWGVIVDYDQYIVEAAALSLTLLLHKTYFWSCFSEKQQENIMVWLNKALGCKIPKNNWTFFKVLIRLALEGCGQVINQAELEEELALIECMYLGDGWYMDGKTTQRDYYISFAFHYYSLIYVKFMRERDPIRAKRFTERAVMFAQDYLYYFDEEGEALPYGRSQTYRFAQGAFFAALIFAEVEALPWGQIKTLLAKHLHCWMQQAIFTYDGRLSIGYHYENLVMAEGYNAPGSPYWAFKTFLLLAVDQDHPFWRAEPLAIKREEKRLEHHHHHH | not soluble
MGSDKIHHHHHHMTEVISTQSVVDLAAIAEKFAFPGTVTNVQAFGSGNINDTFLVTVDSLEAQHFILQRINTLVFRQPELIMQNMRIFSDHVYQRLQYAPPSRRWEVPRILSTKDNHDYCTDTQGNFWRAISFISGSQSFDTMQDLAQAQEIGYALGMFHNLISDLSPEKLADTLVGFHITPLYLRHYEQVLATAKPQPSPELDYCLQFVSDRQSYACILENAKAAGELPLRLMHGDPKINNIMFDTVTHKAVSVIDLDTVKPGLVHYDIGDCLRSGCNHAGEETEHWESVAFDTDLCQGILQGYLSVAKDFLTENDYAYMYDAIRLIAFELGLRFFADYLAGNVYFKIKYPEHNLARALVQFKLTESIESQEIKIRKIIQDIK | not soluble
RTCRIHEISCGAHSTQCIPVSWRCDGENDCDSGEDEENCGN | soluble
MAHHHHHHMQRPTTARYRGRRESSAASRKLAKKPHSLMDELPPCPPSPYKWKQHRQHDGHHISVTAAFIRGRRNMRVGAAAISAIAASPFPVDGATKAAKSSPAFPMRALVVAGTHDSDAVEGNNDDEAIFELFFREAQLHYHISAEENMRNHLLAGEEVAFTNLMIEALQARAELLAGDEAAELVIRDAQKRAQERQAMMKEIEKTVALRLHDERMAQLLAMEFEALLPAHGAGCERILREEAADLGEVFRWHKENRPLGAGCFIEAPVEDSRLTDARRGTGAAKFLESRLALAKGSRRASCARSSRVYLAQLLQKGTSSRCSAAALGPLAVAAGEAPASLLDGTLPVMDEALFQEEGRARLQAAKDQRYLALRGLRAVSDIRQAAAAAREKVLAEEAMCWMQIARLEVDGIYAAQEATRERKKREASADAATTHRAAQKKEVKERLLRQRGRPVPEPDNSAGGDARVQPRISGKSTEEGAQPPKDQAAITEAGALEQPSPRSSSSTVPDNSPLCGALAEGASTTAEANVDAVDELAYLRFVTGEITDPDACKQLSALVSSEVDEEVEKAV | soluble
MGSDKIHHHHHHMNTNKRVLILTANYGNGHVQVAKTLYEQCVRLGFQHVTVSNLYQESNPIVSEVTQYLYLKSFSIGKQFYRLFYYGVDKIYNKRKFNIYFKMGNKRLGELVDEHQPDIIINTFPMIVVPEYRRRTGRVIPTFNVMTDFCLHKIWVHENVDKYYVATDYVKEKLLEIGTHPSNVKITGIPIRPQFEESMPVGPIYKKYNLSPNKKVLLIMAGAHGVLKNVKELCENLVKDDQVQVVVVCGKNTALKESLSALEAENGDKLKVLGYVERIDELFRITDCMITKPGGITLTEATAIGVPVILYKPVPGQEKENANFFEDRGAAIVVNRHEEILESVTSLLADEDTLHRMKKNIKDLHLANSSEVILEDILKESEMMTAKQKAKVLS | not soluble
HEEHLMVPKGVEVYEINGPYFFGIATKFEEIMSELGDRPKVRIVRMRKVPFIDSTGIHNLTNLCEMSKKENIQIVLSGVNEKVHQILEKSGFNELLGKENICPNINVALEKAK | not soluble
MGSDKIHHHHHHMSSHQPAPPARPTNKVFIIGLPRTGTTSVSVALLEMGLRVAHQAFTKQAVILADAISDAPCFSDYRQLHSLYPDAKFIYLDRPLDAWVPSMQMLLSRMLVHLDKERGRFHPLLKRSFGHTFGIYRVADPMDAEHLKTCYQVHKQQVFDYFHQDQGLAQQFLSLQLDDPQSLPRLANFIGLDAQVDSPQLAFPHLNRGRNVASWDEYKHELKISSNLAGPENRKYFNYKI | not soluble
MSKLIEYDETARRAMEVGMDKLADTVRVTLGPRGRHVVLAKAFGGPTVTNDGVTVAREIELEDPFEDLGAQLVKSVATKTNDVAGDGTTTATILAQALIKGGLRLVAAGVNPIALGVGIGKAADAVSEALLASATPVSGKTGIAQVATVSSRDEQIGDLVGEAMSKVGHDGVVSVEESSTLGTELEFTEGIGFDKGFLSAYFVTDFDNQQAVLEDALILLHQDKISSLPDLLPLLEKVAGTGKPLLIVAEDVEGEALATLVVNAIRKTLKAVAVKGPYFGDRRKAFLEDLAVVTGGQVVNPDAGMVLREVGLEVLGSARRVVVSKDDTVIVDGGGTAEAVANRAKHLRAEIDKSDSDWDREKLGERLAKLAGGVAVIKVGAATETALKERKESVEDAVAAAKAAVEEGIVPGGGASLIHQARKALTELRASLTGDEVLGVDVFSEALAAPLFWIAANAGLDGSVVVNKVSELPAGHGLNVNTLSYGDLAADGVIDPVKVTRSAVLNASSVARMVLTTETVVVDKPAKAEDHDHHHGHAH | soluble
MSLFHFVIKGTGFSSKNLQEIKVYEETLFCIDEAGVIQEIIEPDAEAYETVLAEQKEAQRFQELPQDSYLLPGFVDLHVHAPQWAQSGTALDIPLYEWLNTYTFPLESKFADLAFAQQVYDELVTQLLANGTTTALYFATIHYEASRRLAEICAEKGQRGLIGKVVMDDLNENPEYYRDQTTQQALEETERFIQEIQTLAQQTKQGVYPVVTPRFIPSCTEEALKGLGELAAKYQVHVQSHCSESDWEHQFVQERFEKNDAQALNDFGLLTEKAVMAHAGFLEEADMNLFHETGTAVAHCPISNAYFGNAVTPIAKLVHQHQVEVGLGSDLSGGFSPSLFDNLKQAVISSRMLEDGVDATKKPEVRGVKTARITVNEAFYLATAGGGQALSLPIGKLEKGYAWDVQIINTSLSQARIPKNPGESLLDIFQKILYLARPENIREVWVQGEKVHDKNLMSATKGVEGHHHHHH | soluble
MAAMPKPAAFWNDRFANEEYVYGEAPNRFVASAARTWLPEAGEVLLLGAGEGRNAVHLAREGHTVTAVDYAVEGLRKTERLATEAGVEVEAIQADVREWKPARAWDAVVVTFLHLPADERPGLYRLVQRCLRPGGRLVAEWFRPLEHHHHHH | not soluble
MPVVKVRENEPFDVALRRFKRSCEKAGILSEVRRREHYEKPTTVRKRAKAAAQKRHAKKLSRENARRVRLYLEHHHHHH | not soluble
MGSDKIHHHHHHMKALALFSGGLDSMLAMKLITAQGIEVKALNINIGFGSTSDKSEIMKKRAAMVGADFEMIDVRNSYLQEVLFNPQYGYGKHFNPCIDCHAFMFKTALAMLKEENASFIITGEVLGQRPMSQRSDAMAKVKKLALDEEDLILRPMCAKNLPLTKPEREGWVDREKLEGIIGRSRKRQLELAAKFGLEDFESPGGGCLLTLDSFAKKIRDFIEFDKDMQVNDAQLLKYGRHLRLPNGAKMIIGRNELENTLLKGLKTPKYEAIEIGDLIGAYSLVDEKISEKDLELALKIALTYTKHEVGKSYELKFKNQAYTSIAFENKADINQFFIS | not soluble
SNAMSDKFHILLLNGPNLNLLGTREPEKYGYTTLAEIVSQLEIQAQGMDVALSHLQSNAEHALIDSIHQARGNTDFILINPAAFTHTSVALRDALLGVQIPFIEIHLSNVHAREPFRHHSYLSDIAVGVICGLGADGYNFALQAAVNRLSKSN | soluble
